Laboratory results taken from patent US20160297891A1 (Zymeworks, published 2016).

What was measured:
[1] = molecular target: T1, HER2 extracellular domain (soluble analyte in SPR) (human); assay: SPR, the reference itself
[2] = molecular target: T1, HER2 extracellular domain (soluble …); assay: SPR, standard deviation of KD
[3] = molecular target: T1, HER2 extracellular domain (soluble …); assay: SPR (Biacore T200), variant captured on anti-human Fc, Her2 injected, single cycle kinetics, 25 C

- KD_wt/KD_var [1]: 1 fold
- STEDEV KD [2]: 4.2 nM
- Kd [3]: 14.9 nM
B1: v4182, monovalent (one-armed) anti-HER2 antibody with a Fab derived from pertuzumab on chain A (antibody, IgG1)
heavy: EVQLVESGGGLVQPGGSLRLSCAASGFTFTDYTMDWVRQAPGKGLEWVADVNPNSGGSIYNQRFKGRFTLSVDRSKNTLYLQMNSLRAEDTAVYYCARNLGPSFYFDYWGQGTLVTVSSASTKGPSVFPLAPSSKSTSGGTAALGCLVKDYFPEPVTVSWNSGALTSGVHTFPAVLQSSGLYSLSSVVTVPSSSLGTQTYICNVNHKPSNTKVDKKVEPKSCDKTHTCPPCPAPELLGGPSVFLFPPKPKDTLMISRTPEVTCVVVDVSHEDPEVKFNWYVDGVEVHNAKTKPREEQYNSTYRVVSVLTVLHQDWLNGKEYKCKVSNKALPAPIEKTISKAKGQPREPQVYVYPPSRDELTKNQVSLTCLVKGFYPSDIAVEWESNGQPENNYKTTPPVLDSDGSFALVSKLTVDKSRWQQGNVFSCSVMHEALHNHYTQKSLSLSPG
chain: not shown
light: not shown
notes: also called OA-pert
